Assay results published in patent US20200362047A1 (CRESCENDO BIOLOGICS, published 2020).
Residue numbers refer to the chain shown, from its start.

B1: 2.1-6GS-2.1 (VHH)
chain: EVQLVESGGGLVKPGGSLRVSCAASGFTFSDYYMSWFRQAPGKGLEWVSYISGSGDIIDYADSVKGRFTISRDNAKNSLYLQMNNLRAEDTAVYHCAREDSRLTGTTDFDNWGQGTLVTVSSGGGGSGGGGSGGGGSGGGGSGGGGSGGGGSEVQLVESGGGLVKPGGSLRVSCAASGFTFSDYYMSWFRQAPGKGLEWVSYISGSGDIIDYADSVKGRFTISRDNAKNSLYLQMNNLRAEDTAVYHCAREDSRLTGTTDFDNWGQGTLVTVSS
notes: bivalent tandem VH, monospecific for CD137; also called bivalent Humabody VH 2.1; not shown: His tag
B2: 1.1-6GS-1.1 (VHH)
chain: EVQLVESGGGLVQPGGSLRLSCAASGFTFSSHWMTWFRQAPGKGLEWVAHIKEDGSEKYYEDSVEGRFTVSRDNAKNSVYLQMNSLRAEDTAVYYCARGGDGYSDSHFGVDVWGQGTTVTVSSGGGGSGGGGSGGGGSGGGGSGGGGSGGGGSEVQLVESGGGLVQPGGSLRLSCAASGFTFSSHWMTWFRQAPGKGLEWVAHIKEDGSEKYYEDSVEGRFTVSRDNAKNSVYLQMNSLRAEDTAVYYCARGGDGYSDSHFGVDVWGQGTTVTVSS
notes: bivalent tandem VH, monospecific for CD137; also called bivalent Humabody VH 1.1; not shown: His tag
B3: Humabody VH 2.41 (VHH)
VHH: EVQLVESGGGLVKPGGSLRLSCAASGFTFSDYYMSWFRQAPGKGLEWVSYISGSGDIIDYADSVKGRFTISRDNAKNSLYLQMNNLRAEDTAVYHCAREDSRLTGTTDFDNWGQGTLVTVSS
notes: human single VH domain
B4: Humabody VH 2.49 (VHH)
VHH: B3 VHH with F37I, N85S, H95Y, S101P
notes: human single VH domain
B5: Humabody VH 2.45 (VHH)
VHH: B3 VHH with H95Y
notes: human single VH domain
B6: Humabody VH 2.42 (VHH)
VHH: B3 VHH with L20V, F37I
notes: human single VH domain
B7: Humabody VH 2.51 (VHH)
VHH: B3 VHH with N85S, H95Y, S101P
notes: human single VH domain
B8: Humabody VH 2.47 (VHH)
VHH: B3 VHH with N85S, H95Y
notes: human single VH domain
B9: Humabody VH 2.48 (VHH)
VHH: B3 VHH with F37I, N85S, H95Y, S101A
notes: human single VH domain
B10: Humabody VH 2.46 (VHH)
VHH: B3 VHH with F37I, N85S, H95Y
notes: human single VH domain
B11: Humabody VH 2.50 (VHH)
VHH: B3 VHH with N85S, H95Y, S101A
notes: human single VH domain
B12: 2.1-6GS-2.1-6GS-2.1 (VHH)
chain: EVQLVESGGGLVKPGGSLRVSCAASGFTFSDYYMSWFRQAPGKGLEWVSYISGSGDIIDYADSVKGRFTISRDNAKNSLYLQMNNLRAEDTAVYHCAREDSRLTGTTDFDNWGQGTLVTVSSGGGGSGGGGSGGGGSGGGGSGGGGSGGGGSEVQLVESGGGLVKPGGSLRVSCAASGFTFSDYYMSWFRQAPGKGLEWVSYISGSGDIIDYADSVKGRFTISRDNAKNSLYLQMNNLRAEDTAVYHCAREDSRLTGTTDFDNWGQGTLVTVSSGGGGSGGGGSGGGGSGGGGSGGGGSGGGGSEVQLVESGGGLVKPGGSLRVSCAASGFTFSDYYMSWFRQAPGKGLEWVSYISGSGDIIDYADSVKGRFTISRDNAKNSLYLQMNNLRAEDTAVYHCAREDSRLTGTTDFDNWGQGTLVTVSS
notes: trivalent tandem VH, monospecific for CD137; also called trivalent Humabody VH 2.1; not shown: His tag
B13: 1.78-6GS-4.1 (bispecific antibody)
chain: QVQLVESGGGLVQPGGSLRLSCAATGFTLSNYWMNWVRQAPGKGLEWVANINQDGSERYYVDSVKGRFTISRDNAKNSLYLQMSSLRAEDTAVYFCARGGEGYGVDHYGLDVSGQGTTVTVSSGGGGSGGGGSGGGGSGGGGSGGGGSGGGGSEVQLVESGGGVVQPGRSLRLSCAASGFSFSGYGMHWVRQAPGKGLEWVAYISYDGSNKYYADSVKGRFTISRDNSKNTLYLQMNSLRAEDTAVYYCAKDPAWGLRLGESSSYDFDIWGQGTMVTVSS
notes: built from its printed name (1.78, 6GS linker, 4.1); not shown: His tag
B14: 4.1-6GS-1.78 (bispecific antibody)
chain: EVQLVESGGGVVQPGRSLRLSCAASGFSFSGYGMHWVRQAPGKGLEWVAYISYDGSNKYYADSVKGRFTISRDNSKNTLYLQMNSLRAEDTAVYYCAKDPAWGLRLGESSSYDFDIWGQGTMVTVSSGGGGSGGGGSGGGGSGGGGSGGGGSGGGGSQVQLVESGGGLVQPGGSLRLSCAATGFTLSNYWMNWVRQAPGKGLEWVANINQDGSERYYVDSVKGRFTISRDNAKNSLYLQMSSLRAEDTAVYFCARGGEGYGVDHYGLDVSGQGTTVTVSS
notes: built from its printed name (4.1, 6GS linker, 1.78); not shown: His tag
B15: Humabody VH 1.107 (VHH)
VHH: EVQLVESGGGLVQPGGSLRLSCAASGFTLSNYWMNWVRQAPGKGLEWVANINQDGSERYYVDSVKGRFTISRDNAKNSLYLQMSSLRAEDTAVYFCARGGEGYGVDHYGLDVSGQGTTVTVSS
notes: human single VH domain
B16: Humabody VH 1.111 (VHH)
VHH: B15 VHH with F95Y
notes: human single VH domain
B17: Humabody VH 1.109 (VHH)
VHH: B15 VHH with S25T, F95Y
notes: human single VH domain
B18: Humabody VH 1.114 (VHH)
VHH: B15 VHH with G55E, S84N, F95Y
notes: human single VH domain
B19: Humabody VH 1.108 (VHH)
VHH: B15 VHH with S25T, S84N
notes: human single VH domain
B20: Humabody VH 1.110 (VHH)
VHH: B15 VHH with S84N
notes: human single VH domain
B21: Humabody VH 1.112 (VHH)
VHH: B15 VHH with S25T, S84N, F95Y
notes: human single VH domain
B22: 1.1-6GS-1.1-6GS-1.1 (VHH)
chain: EVQLVESGGGLVQPGGSLRLSCAASGFTFSSHWMTWFRQAPGKGLEWVAHIKEDGSEKYYEDSVEGRFTVSRDNAKNSVYLQMNSLRAEDTAVYYCARGGDGYSDSHFGVDVWGQGTTVTVSSGGGGSGGGGSGGGGSGGGGSGGGGSGGGGSEVQLVESGGGLVQPGGSLRLSCAASGFTFSSHWMTWFRQAPGKGLEWVAHIKEDGSEKYYEDSVEGRFTVSRDNAKNSVYLQMNSLRAEDTAVYYCARGGDGYSDSHFGVDVWGQGTTVTVSSGGGGSGGGGSGGGGSGGGGSGGGGSGGGGSEVQLVESGGGLVQPGGSLRLSCAASGFTFSSHWMTWFRQAPGKGLEWVAHIKEDGSEKYYEDSVEGRFTVSRDNAKNSVYLQMNSLRAEDTAVYYCARGGDGYSDSHFGVDVWGQGTTVTVSS
notes: trivalent tandem VH, monospecific for CD137; also called trivalent Humabody VH 1.1; not shown: His tag
B23: Humabody VH 1.90 (VHH)
VHH: EVQLVESGGGLVQPGGSLRLSCAASGFTFSSHWMTWVRQAPGKGLEWVAHIKEDGSEKYYEDSVEGRFTVSRDNAKNSVYLQMNSLRAEDTAVYYCARGGDGYSDSHFGVDVWGQGTTVTVSS
notes: human single VH domain
B24: Humabody VH 1.91 (VHH)
VHH: B23 VHH with V37F, E61V, E65K
notes: human single VH domain
B25: Humabody VH 1.100 (VHH)
VHH: B23 VHH with V37F, G55E, E61V, E65K, V70I, V79L, D105I
notes: human single VH domain
B26: Humabody VH 1.101 (VHH)
VHH: B23 VHH with V37F, D54G, E61V, E65K, V70I, V79L
notes: human single VH domain
B27: Humabody VH 1.93 (VHH)
VHH: B23 VHH with V37F, V70I
notes: human single VH domain
B28: Humabody VH 1.92 (VHH)
VHH: B23 VHH with V37F, E65K
notes: human single VH domain
B29: Humabody VH 1.104 (VHH)
VHH: B23 VHH with V37F, E61V, E65K, V70I, V79L, D101V
notes: human single VH domain
B30: Humabody VH 1.106 (VHH)
VHH: B23 VHH with V37F, G55E, E61V, E65K, V70I, V79L, D101E, D105I
notes: human single VH domain
B31: Humabody VH 1.103 (VHH)
VHH: B23 VHH with V37F, E61V, E65K, V70I, V79L, D101E
notes: human single VH domain
B32: Humabody VH 1.105 (VHH)
VHH: B23 VHH with V37F, G55E, E61V, E65K, V70I, V79L, D101V, D105I
notes: human single VH domain
B33: Humabody VH 1.98 (VHH)
VHH: B23 VHH with G55E, E61V, E65K, V70I, V79L, D101E, D105I
notes: human single VH domain
B34: Humabody VH 1.94 (VHH)
VHH: B23 VHH with V37F, V79L
notes: human single VH domain
B35: Humabody VH 1.95 (VHH)
VHH: B23 VHH with E61V, E65K, V70I, V79L
notes: human single VH domain
B36: Humabody VH 1.97 (VHH)
VHH: B23 VHH with G55E, E61V, E65K, V70I, V79L, D101V, D105I
notes: human single VH domain
B37: Humabody VH 1.99 (VHH)
VHH: B23 VHH with V37F, G55E, E61V, E65K, V70I, V79L
notes: human single VH domain
B38: Humabody VH 1.96 (VHH)
VHH: B23 VHH with V37F, E61V, E65K, V70I, V79L
notes: human single VH domain
B39: Humabody VH 1.102 (VHH)
VHH: B23 VHH with V37F, D54E, E61V, E65K, V70I, V79L
notes: human single VH domain

Target: T1, human CD137 expressed on the surface of CHO cells (human, UniProt Q07011 24-255)
T1 construct: Also used for the Jurkat reporter cells that express human CD137 (functional rows); also called CHO human CD137 cells; CHO huCD137
T1 sequence (Q07011 24-255 limits assumed): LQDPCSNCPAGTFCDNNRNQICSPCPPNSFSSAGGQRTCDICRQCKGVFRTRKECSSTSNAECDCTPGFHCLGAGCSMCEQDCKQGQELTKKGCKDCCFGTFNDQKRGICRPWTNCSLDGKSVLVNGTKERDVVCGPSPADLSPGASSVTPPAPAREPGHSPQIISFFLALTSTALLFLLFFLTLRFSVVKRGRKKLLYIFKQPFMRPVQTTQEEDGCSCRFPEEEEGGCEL
Test: FMAT ligand inhibition, CD137 Ligand on CHO human CD137 cells
Method: In parallel to the binding assay, periplasmic extracts were tested for their ability to inhibit the interaction of human CD137 ligand protein with CHO human CD137 cells in an FMAT format. Total binding controls containing diluted periplasmic extract sample buffer and non-specific binding controls containing excess non-Fc tagged competitor were set up on each plate for data normalisation. Fluorescence signal was measured using the TTP Mirrorball and the FL2 median mean fluorescence intensity of gated used for the data normalisation. The data was expressed as a % of the total binding control (% control) after subtraction of the background signal determined from the non-specific binding control wells.
The ability of purified Humabody VH to inhibit the binding of CD137 Ligand to CHO human CD137 cells was measured in the FMAT ligand inhibition assay essentially as described in Example 6. VH inhibited the binding of human CD137 Ligand to human CD137.

IC50 | Binder
0.43 nM | B1
0.28 nM | B2
16 nM | B3
42 nM | B4
5.3 nM | B5
200 nM | B6
27 nM | B7
8.8 nM | B8
86 nM | B9
78 nM | B10
14 nM | B11
0.42 nM | B12
2.8 nM | B13
3.7 nM | B14
0.55 nM | B15
0.75 nM | B16
0.9 nM | B17
0.27 nM | B18
0.5 nM | B19
0.81 nM | B20

IC50 | Binder
0.47 nM | B21
0.2 nM | B22
7.8 nM | B23
1.9 nM | B24
1.4 nM | B25
7.9 nM | B26
0.7 nM | B27
2.9 nM | B28
1.1 nM | B29
2.1 nM | B30
1.3 nM | B31
2.8 nM | B32
4.7 nM | B33
0.8 nM | B34
24 nM | B35
3.8 nM | B36
1.5 nM | B37
2.7 nM | B38
1.7 nM | B39
